Article PMC11574045, “A cofactor-induced repressive type of transcription factor condensation can be induced by synthetic peptides to suppress tumorigenesis” (The EMBO Journal, 2024)

test system: HEK293FT cells transfected with TF library; assay: Screening of TF condensates based on fluorescent puncta; type: cell-based; details: Figure 1B numerical data; TF library screen, one value per transcriptional factor
Outline: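 Puncta scoring used automated confocal imaging of fifty random fields per well, after anti-Flag or anti-GAL4 immunofluorescence (Alexa 488) in PFA-fixed cells. HEK293FT cells carried TF library plasmids delivered with PEI (1.6 μg/ml DNA). At 60 h they were switched for 12 h to glucose-containing or glucose-free medium.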

Molecule | Z score of condensed fraction
NR0B2/SHP (protein, UniProt Q15466 1-257, looked up) Nuclear receptor subfamily 0 …: MSTSQPGACPCQGAASRPAILYALLSSSLKAVPRPRSRCLCRQHRPVQLCAPHRTCREALDVLAKTVAFLRNLPSFWQLPPQDQRRLLQGCWGPLFLLGLAQDAVTFEVAEAPVPSILKKILLEEPSSSGGSGQLPDRPQPSLAAVQWLQCCLESFWSLELSPKEYACLKGTILFNPDVPGLQAASHIGHLQQEAHWVLCEVLEPWCPAAQGRLTRVLLTASTLKSIPTSLLGDLFFRPIIGDVDIAGLLGDMLLLR | -0.8477
NR0B1/DAX1 (protein, UniProt P51843 1-470, looked up) Nuclear receptor subfamily 0 …: MAGENHQWQGSILYNMLMSAKQTRAAPEAPETRLVDQCWGCSCGDEPGVGREGLLGGRNVALLYRCCFCGKDHPRQGSILYSMLTSAKQTYAAPKAPEATLGPCWGCSCGSDPGVGRAGLPGGRPVALLYRCCFCGEDHPRQGSILYSLLTSSKQTHVAPAAPEARPGGAWWDRSYFAQRPGGKEALPGGRATALLYRCCFCGEDHPQQGSTLYCVPTSTNQAQAAPEERPRAPWWDTSSGALRPVALKSPQVVCEAASAGLLKTLRFVKYLPCFQVLPLDQQLVLVRNCWASLLMLELAQDRLQFETVEVSEPSMLQKILTTRRRETGGNEPLPVPTLQHHLAPPAEARKVPSASQVQAIKCFLSKCWSLNISTKEYAYLKGTVLFNPDVPGLQCVKYIQGLQWGTQQILSEHTRMTHQGPHDRFIELNSTLFLLRFINANVIAELFFRPIIGTVSMDDMMLEMLCTKI | -0.574
NPM2 (protein, UniProt Q86SE8 1-214, looked up) Nucleoplasmin-2: MNLSSASSTEEKAVTTVLWGCELSQERRTWTFRPQLEGKQSCRLLLHTICLGEKAKEEMHRVEILPPANQEDKKMQPVTIASLQASVLPMVSMVGVQLSPPVTFQLRAGSGPVFLSGQERYEASDLTWEEEEEEEGEEEEEEEEDDEDEDADISLEEQSPVKQVKRLVPQKQASVAKKKKLEKEEEEIRASVRDKSPVKKAKATARAKKPGFKK | 1.0628
NKX6-3 (protein, UniProt A6NJ46 1-265, looked up) Homeobox protein Nkx-6.3: MESNLQGTFLLNNTPLAQFPEMKAPVCQYSVQNSFYKLSPPGLGPQLAAGTPHGITDILSRPVAAPNNSLLSGYPHVAGFGGLSSQGVYYSPQVGNFSKAGNEYPTRTRNCWADTGQDWRGGRQCSNTPDPLSDSIHKKKHTRPTFTGHQIFALEKTFEQTKYLAGPERARLAYSLGMTESQVKVWFQNRRTKWRKKSALEPSSSTPRAPGGAGAGAGGDRAPSENEDDEYNKPLDPDSDDEKIRLLLRKHRAAFSVLSLGAHSV | -0.571
NR1F3/RORC (protein, UniProt P51449 1-518, looked up) Nuclear receptor ROR-gamma: MDRAPQRQHRASRELLAAKKTHTSQIEVIPCKICGDKSSGIHYGVITCEGCKGFFRRSQRCNAAYSCTRQQNCPIDRTSRNRCQHCRLQKCLALGMSRDAVKFGRMSKKQRDSLHAEVQKQLQQRQQQQQEPVVKTPPAGAQGADTLTYTLGLPDGQLPLGSSPDLPEASACPPGLLKASGSGPSYSNNLAKAGLNGASCHLEYSPERGKAEGRESFYSTGSQLTPDRCGLRFEEHRHPGLGELGQGPDSYGSPSFRSTPEAPYASLTEIEHLVQSVCKSYRETCQLRLEDLLRQRSNIFSREEVTGYQRKSMWEMWERCAHHLTEAIQYVVEFAKRLSGFMELCQNDQIVLLKAGAMEVVLVRMCRAYNADNRTVFFEGKYGGMELFRALGCSELISSIFDFSHSLSALHFSEDEIALYTALVLINAHRPGLQEKRKVEQLQYNLELAFHHHLCKTHRQSILAKLPPKGKLRSLCSQHVERLQIFQHLHPIVVQAAFPPLYKELFSTETESPVGLSK | 0.1658
